Data as given in patent US20050079151A1, “Therapeutic agents for apoptosis-related diseases” (priority 1998, published 2005).

How the values were obtained:
NG 108 cell lines = assay: Determination of DNA content in apoptosis-induced neurocytes (UV, PI staining, flow cytometry); assay type: cell-based, mouse; conditions: after UV exposure; for Ratio of cells at each cell cycle: G1: control group 7; for Ratio of cells at each cell cycle: G2/M: control group 9; for Ratio of cells at each cell cycle: S: control group 84
Protocol: The culture flasks were coated with MK 100 ng/ml or MK 10 μg/ml. The flasks without a MK-coating (control) were also prepared.
NG 108 cell lines, hybrid cells of mouse neuroblastoma C1300 and glioma (Nelson P. G. et al.: Brain Res., 147: 245, 1978), were cultured in a Falcon 3110 cell culture flask (75 cm^2, BECTON DICKINSON) containing 10% FBS/DMEM until the cells were almost confluent. After culturing, the cells were exposed to ultraviolet light for […] (UV radiation amount: 60-100 J/m^2) to induce apoptosis.
The cells were collected by centrifugation (4° C., 1000 rpm, 10 min), and washed with 10 to 12 ml of sample buffer [1 g glucose/1 L PBS (−); filtered through a 0.22 μm filter] twice. The cells were adjusted to 1×10^6 to 3×10^6 cells/ml with the sample buffer, and 1 ml of them was centrifuged (4° C., 1000 rpm, 10 min) in a centrifuge tube (FALCON; 15×75 mm). The supernatant was discarded and the pellet was vigorously vortexed for 10 sec. Ethanol (70%) cooled with ice (1 ml) was added dropwise thereto and fixed at 4° C. overnight.
The cells fixed overnight were briefly vortexed and centrifuged (3000 rpm, 5 min). 70% Ethanol in the supernatant was discarded to 0.2 ml or less. The centrifuge tubes containing the cells were slowly vortexed, and 1 ml of propidium iodide (PI) stain was added thereto. The PI stain contained 0.5 ml of 20×PI solution, 0.1 ml of 100×RNase A solution, and 10 ml of the sample buffer. Twenty-fold dilution of PI was obtained by preparing 1 mg/ml of PI solution (SIGMA), filtering it through a 0.22 μm filter, and storing it at 4° C. in the dark. RNase A solution (100×) was prepared by adjusting RIBONUCLEASE A (Type I-A) (SIGMA) (10000 U/ml) to 125 mg/ml (80 U/mg).
The cells were lightly shaken, incubated for 30 min or longer at room temperature, and measured by flow cytometry.

[1] = system: renal uriniferous tubule cells; assay: Inhibitory effect on cisplatin-induced apoptosis in renal uriniferous tubule cells of MK knockout mice; assay type: in vivo, mouse
Protocol: Heterozygous 129/Sv knockout mice (male, 8- to 12-week old) in which parts of exons 2 and 3 of the MK gene were destroyed (Biochemistry 7, 1996, Volume 68, pp. 1239, 4-p-1244) were divided into two groups; the saline administration group and the MK administration groups (14 individuals each). As a control group, the untreated wild-type mice (four individuals) were prepared. Dosage of MK was 200 μg/kg and that of saline was 10 ml/kg.
MK or saline was intraperitoneally administered to the mice in two groups in the morning and cisplatin 9.3 mg/kg was intraperitoneally administered to the mice in two groups in the afternoon of the same day (this day is Day 0).
In the morning of Day 1, MK or saline was interperitoneally administered to each mouse in the same manner as on […].
On Day 2, four mice were selected from each group (the untreated wild-type mice group and the two treated groups) to collect urine and whole blood. Clots in the collected blood were retracted for 1 hour at 37° C., and centrifuged (4° C., 8000 rpm, 10 min) to separate the serum. […]
Blood urea nitrogen (BUN) and serum creatinine frequently used as indexes of renal dysfunction in day-to-day diagnosis were measured and proteins in urine were simply quantified. […]
On Day 4, DNA fragmentation in the kidney paraffin sections representating strong damage was analyzed by the TUNEL method (In situ Apoptosis Detection Kit; TaKaRa).

hippocampal neurocytes = assay: Apoptosis-inhibitory effect in vivo, transient forebrain ischemia, MK administration after the ischemic injury; set-up: species or system Mongolian gerbil; conditions: counted seven days after injury
Protocol: MK (2.0 μg) was injected into the ventricle of a Mongolian gerbil transient forebrain ischemia model 2, 4, 6, 12, or 24 hours after the ischemic injury. The numbers of surviving hippocampal neurocytes were counted seven days after the ischemic injury (FIG. 16). When MK was administered at 2 hours after the injury, the number of surviving neurocytes decreased, compared to the Sham-op group, while it was considerably higher than the saline administrated group.
The numbers of surviving hippocampal neurocytes in the groups administered 2, 4, 6, 12, or 24 hours after the ligation were 120±36 (n=4), 90±23 (n=6), 80±13 (n=6), 86±34 (n=6), and 93±22 (n=4) cells/mm, respectively (FIG. 16).

B1: MK: midkine, a heparin-binding growth and differentiation factor; human MK protein (SEQ ID NO: 3; or recombinant, secreted by yeast) (protein, UniProt P21741 21-143, looked up)
Midkine: VAKKKDKVKKGGPGSECAEWAWGPCTPSSKDCGVGFREGTCGAQTQRIRCRVPCNWKKEFGADCKYKFENWGACDGGTGTKVRQGTLKKARYNAQCQETIRVTKPCTPKTKAKAKAKKGKGKD
**Q.** For B1, which “Ratio of cells at each cell cycle: G1” value (NG 108 cell lines; flask coated with MK 100 ng/ml) is on record?
**A.** The value was 75%.

**Q.** And the “Ratio of cells at each cell cycle: G2/M” value (NG 108 cell lines; flask coated with MK 100 ng/ml)?
**A.** The value was 5%.

**Q.** What about the “Ratio of cells at each cell cycle: S” value (NG 108 cell lines; flask coated with MK 100 ng/ml) of the same molecule?
**A.** Its value is 19%.

**Q.** What about the “Ratio of cells at each cell cycle: G1” value (NG 108 cell lines; flask coated with MK 10 μg/ml) of the same molecule?
**A.** Its value is 67%.

**Q.** What about the “Ratio of cells at each cell cycle: G2/M” value (NG 108 cell lines; flask coated with MK 10 μg/ml) of the same molecule?
**A.** The value was 24%.

**Q.** And the “Ratio of cells at each cell cycle: S” value (NG 108 cell lines; flask coated with MK 10 μg/ml)?
**A.** Its value is 9%.

**Q.** What about the “change of the ratio of the cells at G1 phase compared with the control group” value (NG 108 cell lines; in the presence of MK) of the same molecule?
**A.** Its value is “increased by about tenfold”.

**Q.** And the “change of the ratio of the cells at S phase compared with the control group” value (NG 108 cell lines; in the presence of MK)?
**A.** The value was “decreased one eighth to one forth”.

**Q.** And the “number of TUNEL positive cells in kidney paraffin sections” value ([1]; Day 4, MK 200 μg/kg i.p., cisplatin 9.3 mg/kg i.p., versus saline administrated group)?
**A.** The value was “significantly decreased”.

**Q.** What about the “renal dysfunction caused by cisplatin (BUN, serum creatinine, urine protein, HE sections)” value ([1]; MK 200 μg/kg i.p. daily, cisplatin 9.3 mg/kg i.p. on Day 0) of the same molecule?
**A.** The value was “effect of MK for relieving renal dysfunction caused by cisplatin was observed”.

**Q.** And the “numbers of surviving hippocampal neurocytes” value (shortened to “numbers”) (hippocampal neurocytes; MK 2.0 μg into the ventricle 2 hours after the ligation)?
**A.** Its value is 120±36 cells/mm.

**Q.** And the “numbers” value (hippocampal neurocytes; MK 2.0 μg into the ventricle 4 hours after the ligation)?
**A.** The value was 90±23 cells/mm.

**Q.** What about the “numbers” value (hippocampal neurocytes; MK 2.0 μg into the ventricle 6 hours after the ligation) of the same molecule?
**A.** Its value is 80±13 cells/mm.

**Q.** And the “numbers” value (hippocampal neurocytes; MK 2.0 μg into the ventricle 12 hours after the ligation)?
**A.** The value was 86±34 cells/mm.

**Q.** And the “numbers” value (hippocampal neurocytes; MK 2.0 μg into the ventricle 24 hours after the ligation)?
**A.** Its value is 93±22 cells/mm.
